Data reported in the supplement of paper PMC11502859.
“And” between values parts separate entries of the source, which are not always exact repeats. Identical values can stand only once.

System: HEK293T
Experiment: median enrichment of reporter reads in eGFP-reduced (low/intermediate) vs eGFP-high sorted cells (eGFP-extension fusion abundance) (ratio); higher = stronger loss of eGFP-fusion protein abundance (more destabilising extension)
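Further: lentiviral eGFP-IRES-mCherry reporter pool sorted by FACS 96 h post-transduction, gated on mCherry-high cells, Illumina read counts normalized per million, median across four biological replicates.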

Substance	median enrichment
REQQMELWERGEQWGYRESSSALPLGQPHLPAVSPGHFSTSQVEVLQGPAATCIRRTSFSA [SPATA19]	4.52
REQVPAPHTPWRLPLRLHRLLPSIQPGVQVALFRGQMQAVGRTLPVSCVPHRERLWGDGWGMQSLRANKSSSEPASPLNV [KHK]	2.84
RERGLSSSLPAPSSPRPSSLCAW [HOXC10]	4.17
RERTTPSLPSMDGHSSAASSATSCSQPMPGGAAIFSPHHPFTHS [EHMT2]	0.484
RESAGIEQSSPAQVSSLP [ZNF622]	0.239
RESLHLEITTGYASGI [ZNF41]	5.83
RESSCILENTIPDFPQTALHQYNCISSFYIVQ [SCRG1]	13.8
RETPTTPQPHRTNNSLQV [DCSTAMP]	0.265
REVYLKKKSETDTSNPAVTTTPTTYVHMTNNFQVGFS [KCNH1]	4.02
RFHRSAFGHLLWWVLVTHFRLRFDGLNLYSLESMSCVYSTIRNLILFLLLFLQKQKLILKSIIMGWGGGCPQDMQDFCRGQHR [SETD4]	8.11
RFLVTA [GXYLT1]	2.37
RFPSPLLLLLLDGNHSLDHACSL [TUBG2]	2.18
RFQIWRRPGKPTEVQHVICLKVVLLHHIDDPTTSNMGHSIHFNISIFLYHFCYLSV [ARPC5]	6.81
RGAEGPMGEERRALLGKVGFLDPRDKLFRCHNVEESTWGTTVLVQVGLGKCTSLPLTPRQNPHPSLWILGKVPVPGEYPGPQT [IGHMBP2]	5.61
RGAF [HPX]	0.586
RGAGTCDRLWWHH [NAGA]	1.53
RGAHGQDWWGLQDVRRVRCLALATLFLVGFCCCSCYFHL [PSMC3IP]	7.83
RGALVSPQSSQAAGSPRQLSGHPVPSAPPSAALCSRPAPPSRGCLGLFTCFPSHINTVFPLLSYNSPTAHSPPH [TNFSF12]	8.64
RGASLLSSHSGSSFHPPPSPPPTRGTWWREAGRLFCGIARSSLWCRLVAITCNKAPGKGK [TLE6]	21.9
RGASSSE [SLC1A6]	0.611 and 0.437
RGAV [RELT]	0.538
RGCAPAGSSKDRPARSPSNPTFFWKGGVLQGQAGASSRLLGANPSMYIAFLSCLRAADSQRCARGERCAVGSRA [TNFRSF1A]	10.5
RGCQLGRKRETRP [CCND2]	0.783

Substance	median enrichment
RGDAVGLAEPRFSHQQGECWPDTSEDPGLVIICLGGTG [GMPPB]	7.69
RGFRHCIPELL [PPM1M]	1.19
RGGMGFTDMVLIH [GABRG2]	7.24
RGGRTSNLPKRLPCPNPFITPSFRHPQPLLAQKENWGLRVGTQA [TNF]	7.66
RGGRWEPSFQ [OR6Q1]	0.248
RGGSASVPSLTSLGCCFSGVMSPLPLGYLPSTGQGPWWADGN [SFXN3]	21.3
RGHRSEMRGLECGWAPGAMGGCGAGEIKSELLLPGVPTSSSGQSVHSQPDR [BCL2]	1.46
RGIRLPGNSGTVALADHLQHPAS [SLC2A10]	0.279
RGK [PKP2]	0.513
RGKRAPVRRKGRRFRDVGGHPSPSRPCWGHGSGGGDMGPRQTASPTEHLDSNSVPGGAPTPPFSVSSCLFFFIFITKFHSF [ZFP36L2]	5.27
RGKTTGRPESGPARCSGEFLISSHWGN [BPIFB2]	0.953
RGKTWKRPACLQ [RRM1]	0.421
RGLGWAGARRAAGWPLGGQDGTVGTEVGGRGPSGLN [TNFRSF8]	6.62
RGLLALTLQPTLAVWPSPGSFPAPLPLFPVLLNSPSWRVQALGMGGTRPHSFHRALRPDTADQPHSAQEAASGVGAQRGTAAS [BAP1]	2.63
RGLLPLGPLTLSGWWTTKYNPVYNLKIYFTFVLLYLFIKG [SMAD4]	6.89
RGLRRGLTEP [SLC22A6]	0.442
RGNLQAEEVSAAALLEPGRGLPVSQPGPATQDSWDIPCVTPLRPFGLAPWLSLREVALRLAIYIYNLFT [HK3]	4.11
RGNMCNVLTKVTGTY [PLEKHS1]	1.76
RGPALPPCTSPGAERS [PRMT1]	1.08
RGPASHGPRTMESPLSS [GNB1L]	0.533
RGPEASWVSLGPQKLIKE [PCP2]	0.815
RGPELARPRTPNTIFAIQPQAMGTAFLPRGPGRPQRLLQARTLVHYTPCLGAEILQQKDAIFFVSFFSIFFSKESIFQYVECV [NFYC]	3.94
RGPPGLWGERM [CHRNB4]	1.36

Substance	median enrichment
RGPPLAKACGRRWRPSLGRFQGASGKPDGCWWPFPRGLVSGPAQSLLRGRGWRLGSPACLAPPSERAALLSY [ARL6IP4]	10.9
RGPSETVYALTST [KDELR3]	1.55
RGQAAPVLGEGG [DEPDC5]	3.76
RGQWLRGYVVQMLLLP [FILIP1]	8.14
RGRGCPPRPLTPPAAVAAILPLAWGLPSPSQSISPPPSCSGWMWACR [KMT2B]	4.49
RGRLNPPNINSHPSLHSCLPLFTFILRVQKFQVSFELYFVCQFHAYFSFIRES [CNTD1]	5.36
RGRTSALSDRTLRAMLPCHP [MRGPRX3]	6.81
RGSGQECHSQCPDPEIGPIPCLQPCLEAIQ [SLC22A14]	2.88
RGSRRKQDTRWQA [PHGR1]	3.92
RGTAVPACSPHLGRGSLAAFSLRSRST [AGAP1]	0.942
RGTLRSPKTSSCWGPHEGTSTLWGVARKRQALQLGDPIWKRDSDLPTSSSSFSTKAPVDSREVVKIFFSPIFLPASGDTAAVT [PGPEP1]	2.83
RGWDPLLKLVASAGLGAAPQRLQLIC [FES]	32.6
RHRGKRRKSC [CLDN1]	0.381
RHRRTPGDFLYICRLRLFVTSKWDIV [TAF4]	12
RHSELLAVEEHHAYL [YTHDC2]	0.354
RHSPLLVPH [TP53]	0.971
RHSTRPPGLLGPPTPTALTAFPIAPGSSPPLGGTVKGSSLTRRLLLPLGSQLPPQESLLGRTLRTPSLHPVVL [KLC4]	9.71
RHVIP [NPFF]	0.57
RICKRRRHDVLCLH [MED12L]	13.4
RIFCLVASQLGVL [GXYLT2]	6.32
RIFTHIYLVSIG [FAM129C]	28.5
RILDQ [SH3KBP1]	1.07
RILPNALSENAELPFLFASFIFNIHNVVCLKVGFEVCAAYSFHLSPRFPSL [RRAGA]	15.7

Substance	median enrichment
RILSLIPATPLLISGGRTVSELFVSIGHLSLVVKDWLMITMHRKTFRRKGECFVDHFGFLFCVWQF [EEF1A1]	5.71
RIQPKCQVRSEGIFH [ABCC4]	1.49
RKCQEWKIFLILVQHEVVFRSLLSLIAILRFVGFYERLLLSGLKSFLNVCFLRSVIQLCEYFVTDLFQWLLV [HINT3]	11.3
RKDNSWKPQQFSIQGIYLRQIEYIL [ARL6]	6.56
RKEKQLLPLSWDRGVGKSAGPHGAWGSQTEAPQNFLQCLRDAWMWPLPLLLTLKDSQTH [LY9]	4.97
RKFLLNISVGSCYQNFGYDFLGSVYFGCILNYGNGIYLLLTVNLFF [CCDC181]	5.89
RKGGSYSQAAM [HLA-G]	0.441
RKINYTFYSPPEDHCPKAGSICSNNAAFTSSVHLCS [OR4M1]	10.5
RKLLP [NOX4]	0.64
RKPLNVRNVGRPFNIITNFMDIIDFIFVRTLMNVKDVGNALPVVETLEYIREFILVRNHINVKNVGKPLVIVQTC [ZNF780B]	7.09
RKSNASRLSEA [VHLL]	0.269
RKTWPENPQVLQRKTELGKGESWKDGAD [ABHD15]	1.61
RKWNS [GCSH]	0.655
RLAACLRNPAFFRR [MAPK10]	12.2
RLEPV [TMEM87B]	0.479
RLHRNCW [OR2Z1]	3.02
RLHTCMLSPRGNGLYIAHFTLFRRHFIPALVLLEGLSRQSSSCSASVCDSPPSTPMALSLGDSSSPRKEGGVAEDLQPWPRGA [PRKAB1]	7.16
RLLTHRHNLGH [MMP19]	8.57
RLMW [KRTAP13-3]	3.36
RLNICSVLKLMCFVGV [FBXL4]	10.3
RLPAAQKNFALSFPVLFHTQKDPRKPVFNM [NR3C2]	3.55
RLQSVVLVPLSQCRLVFLHILSMA [CDC16]	7.48
RLSTGPLHTISLIYVPSTLPQISGSGPGTWEGTGVRGCMGALAAPGSVVGRKLWKL [LRRC73]	6.15

Substance	median enrichment
RLVIFFQRVMQSGYKRIFCLPYKGILPAAKFKQ [ARMC10]	14.7
RLWSRHPAEWGPRGCQLGALPLAATLWSGRVLHHQEDPILSSVSCPSCCGMLSTEPTAHLPLHLPESVSICNKRQPRLPRAVS [INAFM1]	3.36
RLYRLRR [ST3GAL6]	10.7
RMKSTASE [SERPINI2]	0.64
RMLEAFIHL [ZNF248]	1.59
RMNTCQE [OR52N4]	0.48
RMSSFIRIWALSSFFSTHFPLPGPPLIQMPPSDSSWKPFLQLGQYDF [MSANTD2]	33.9
RNCMKKIKSSKMALVTIKKL [CXorf41]	2.73
RNEYMTGNNGDCL [CTPS2]	0.464
RNHKEPSVPVHEISLLLENRNIDYQITMQLKPYCFFEQLFIPVIKTDCAEYSKRSEIGVYNYIFSDAIY [RPE]	8.87
RNKKFWVLSS [RGCC]	1.68
RNLNGHYKLSNST [ARMC4]	1.99
RNQVASCPLLRGNPRPLASLPTYKALSQGIAGPRCLDPGCASPSLCSPWKGR [HSPBP1]	7.21
RNRGLNVFRVRMP [PARD6B]	4.57
RPCAEALPGFTQLMDSSVLTLSTTPFTSLFDFRSYRHCLR [GINS1]	7.78
RPETECQPKESSCKTVIYCEYLHHMGSLMVNIFLQSC [TXK]	12.5
RPGAQPCAAEDSRDWRRPRPATAGARGHLPGLLTLSPHWEWAPRGRASAVAASAPGRAGPPRGPVLVFCRRTQPPPIPDSSLG [TMUB1]	6.53
RPLLRVCPAPFHQ [DYRK4]	1.43
RPPAPNSIIYYGAAPPGWPDPWALGLWILVPCLENSPPLAPHCSL [CYTH2]	8.4
RPPLSPECNKHQIPCVK [POLR2I]	3.52
